These are literature values, as cited in paper PMC10860761.

One data set concerns the target actin monomer (ATP) (UniProt P60010).
The target of another data set is actin monomer (ADP) (UniProt P60010).

Srv2/CAP CARP, sequence (P17555 369-526): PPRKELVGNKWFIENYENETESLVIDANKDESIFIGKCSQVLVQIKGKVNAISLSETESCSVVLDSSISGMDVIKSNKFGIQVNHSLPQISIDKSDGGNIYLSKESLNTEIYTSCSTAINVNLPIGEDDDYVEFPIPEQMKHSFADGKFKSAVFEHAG
Srv2/CAP WH2, sequence (P17555 287-336): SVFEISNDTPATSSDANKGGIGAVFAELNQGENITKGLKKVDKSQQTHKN

As a reminder, the Kd is the concentration at which binding is half-saturated. Srv2/CAP WH2 (from UniProt P17555): the Kd with actin monomer (ATP) was 1000 nM. Regarding Srv2/CAP CARP (from UniProt P17555), the Kd with actin monomer (ADP) was 1500 nM.
